According to patent US7303752B2, “Hookworm vaccine” (The George Washington University, priority 2001, dated 2007):
Values joined by “and” are separate entries in the source; they are usually repeats but may differ in a detail not shown here. Equal entries are not always repeated.

What was measured:
[1] = system: antibody to recombinant proteins; assay: Pre-challenge antibody titer ELISA, trial with Ac-ASP-2, Ac-API, Ac-MEP-1, Ac-APR-1 in AS03; format: in vivo, dog; settings: for antibody response, in words: AS03
Protocol: (§1) The vaccine trial was designed to test Ac-API, Ac-ASP-2, Ac-MEP-1, Ac-APR-1 formulated with Adjuvant System 03 (AS03) obtained from GlaxoSmithKline (GSK). The rationale for selecting AS03 as an adjuvants is discussed elsewhere (Stoute et al, 1997). The ten purpose bred beagles were randomized into five arms: immunized with the adjuvant-formulated recombinant proteins or adjuvant only (control). To make six doses of antigen formulated with AS03, […] of recombinant protein (0.3 ml of antigen at a concentration of 2 mg.ml^−1) was mixed with 1.2 ml of 20 mM Tris-HCl, 0.5 M NaCl, pH 7.9 and 1.5 ml of AS03; the contents of the tube were vortex mixed for 30 seconds then shaken at low speed for 10 minutes. Dogs were immunized with 100 g of formulated antigen in a final volume of 0.5 ml. ASO3 only control was prepared as described above, with PBS included instead of antigen. Formulation of GSK adjuvants were conducted according to the protocol provided by GSK. All injections were performed intramuscularly (IM). Test and control articles were prepared on the day of injection. All animals received 4 immunizations approximately 3 weeks apart.
Beagles were immunized with formulated Ac-ASP-2 as previously described (Loukas et al, 2004). The vaccines were administered IM three times beginning at age 62+/−4 days. Boosts were administered to the dogs at intervals of 21 days. Blood was drawn at least once every 21 days and serum was separated from cells by centrifugation. Each animal's specific antibody response was evaluated by indirect ELISA using serum taken prior to the infective challenge (Loukas et al, 2004). Recombinant Ac-ASP-2 was coated onto microtiter plates at a concentration of 5 g.ml^−1. Dog sera were titrated between 1:100 and 1:2×10^6 to determine endpoint titers. Anti-canine IgG1, IgG2 and IgE antibodies conjugated to horse-radish peroxidase (Bethyl Laboratories) were used at a dilution of 1:1,000.

[2] = system: A. caninum; assay: Canine vaccine trial with Ac-ASP-2, Ac-API, Ac-MEP-1, Ac-APR-1 in AS03, footpad challenge with 500 A. caninum L3; format: in vivo, dog; settings: for worm burdens, Maximum / worm burdens, Minimum / worm burdens, Mean / worm burdens, Median: 5 dogs; for worm burdens, Mean: ASO3 control 203.8000; for worm burdens, Median: ASO3 control 215.0000; for worm burden, Colon, Male, Average / worm burden, Colon, Female, Average / worm burden, Intestine, Female, Average / worm burden, Intestine, Male, Average / worm burden, Total, Average: group average; for worm burden, Colon, Male, Average: AS03 control 5; for worm burden, Colon, Female, Average: AS03 control 9; for worm burden, Intestine, Female, Average: AS03 control 95; for worm burden, Intestine, Male, Average: AS03 control 96; for worm burden, Total, Average: AS03 control 204; for worm burden, Colon, Female / worm burden, Colon, Male / worm burden, Intestine, Female / worm burden, Intestine, Male / worm burden, Total: individual dogs
Protocol: as §1, with “The ten purpose bred beagles were randomized into five arms: immunized with the adjuvant-formulated recombinant proteins or adjuvant only (control).” left out
A. caninum larvae were cultured from eggs collected in the feces of infected dogs. All hookworms in the infective challenge were approximately equal age (17±7 days post hatching). The species identity of the infective larvae were validated using PCR. All dogs were infected by the footpad method with the same dose of 500 L3 of A. caninum (Zhan et al, 2001). Larval challenge occurred on one of three consecutive days (at age 120+/−9 days). Fourteen-sixteen days after the final immunization, dogs were anesthetized using a combination of ketamine and xylazine (20 mg.kg^−1 and 10 mg.kg^−1 respectively), and 500 A. caninum L3 in a final volume of […] were applied to the footpad.

| Molecule | antibody response, in words [1] | Pre-challenge antibody titer, IgG1, GEOMEAN ([1]; geometric mean of group) | Pre-challenge antibody titer, IgG2, GEOMEAN ([1]; geometric mean of group) | Pre-challenge antibody titer, IgG1 ([1]; individual dogs) | Pre-challenge antibody titer, IgG2 ([1]; individual dogs) | worm burdens, Maximum [2] | worm burdens, Minimum [2] | worm burdens, Mean [2] | worm burdens, Median [2] | worm burden, Colon, Male, Average [2] | worm burden, Colon, Female, Average [2] | worm burden, Intestine, Female, Average [2] | worm burden, Intestine, Male, Average [2] | worm burden, Total, Average [2] | worm burden, Colon, Female [2] | worm burden, Colon, Male [2] | worm burden, Intestine, Female [2] | worm burden, Intestine, Male [2] | worm burden, Total [2] | other results |
| --- | --- | --- | --- | --- | --- | --- | --- | --- | --- | --- | --- | --- | --- | --- | --- | --- | --- | --- | --- | --- |
| Ac-MEP-1: A. caninum metalloendopeptidase antigen, SEQ ID NO: 14 (protein, listed as Ancylostoma caninum) MAKLLEVTTGLVVLLGVLGVISVVFNVLTWLKLNENKDDSSPAPKIWNVGEQDNTPVLTNLLVLEKEELAAKLKKTPYEEVDEQTVRQSSVMKLRNIKNALFTIEPVASALPPLRVNDPKYCPSYGEPDKKYAYQEAASYLLSGLDQTVDPCEDLYAFTCNTYLRNHNATDIGVNRIGTYKDAQDDVNAEIVEALEEVNVSDTKWSETERLVKATLFTCVHHTRARKPIDNSKNVLIEMRDLFGGIPFLNHTLKKDIDFFDIMGKFEQNHAMGTLLGAMVSVDFKNVNKHSLFLSQPYLPMARDFYVFPQHTKMVENRVSLINSVLRSFAEAVLDDPSPYLDLMSRSARDVVKLEMQIAMASWPESELRNYAQQHNPRTLNQLKAAYPAIKWDSYFNALLSSVQGVDMNRQNIILTQPSYFGWLNALFNGGADDKTIANYLLVHLILEEADFLGGALKTMVQKSDYVPYALGRGKGVTRVGQQLTRSHDDTVEDANIQCLNSMMTYMPFGPGYVYVKSRKNRDDVVKDIEHQTELVFKNFVNMIGNLNWMTDASLELAMEKADTMVKNYGWPKDLFGNFRDSSKIDAYHKKDYGNIINLYKENITHNYYHIRRTMIKGYSNHESLRLLTEAPKRDHFLLSPALVNAWYIPERNSIAFPYAFWNPPYYNYEYPQACNYAGQGGTAGHELVHGFDDQGVQFAADGSLSDCTWIECGWLEEKSKKGFSDMAQCVVTQYSTQCCPQTGGVTHCANGATTQGENIADLGGQLAAYRAYREYITKERGEEEKRLPGLEQYTPNQIFWITYGYSWCMSQTDSSLIRQLLTDVHSPGSCRVNQVMQDIPEFALDFGCTMGQKMYPEPEQRCPVWVAE | weak | 100 | 1,204 | 100 | 1,500 (4×) and 500 | 293.00 | 109.00 | 183.4000 | 129.0000 | 3 | 6 | 91 | 87 | 183 | 0 and 2 and 7 and 9 and 12 | 0 and 1 and 2 and 5 and 8 | 64 and 58 and 153 and 130 and 50 | 65 and 47 and 131 and 124 and 49 | 129 and 108 and 293 and 268 and 119 | worm burden reductions in three out of the five vaccinated dogs ([2]; versus control mean): exceeded 36% |
| Ac-API: A. caninum aspartyl protease inhibitor antigen, SEQ ID NO: 38 (protein, listed as Ancylostoma caninum) MKLLALSALFALAFAAPRDKRLAVSTITVTGGLGLSTGCVVTGNVLYANGFRVREITPSEQQELVKYQNDVAEYKTALKQAIKEREEKIRARLAGKKVKAVESTNQEDLPKPPQKPSFCTPEDTTQFFFEGCMIQNNKIYVGNTFARDLTQPEISELKEFEKKFKVYQDYVQKQAEQQVNSLFGGSDFFSALFSGGETSKPSTTTVAPELPEDAPEQPPTPNFCTRII | robust | 3,612 | 32,511 | 4,500 (4×) and 1,500 | 40,500 (4×) and 13,500 | 237.00 | 146.00 | 187.800 | 167.0000 | 5 | 12 | 83 | 87 | 188 | 3 and 1 and 12 and 24 and 21 | 3 and 0 and 2 and 9 and 10 | 86 and 83 and 66 and 91 (2×) | 54 and 83 and 80 and 105 and 115 | 146 and 167 and 160 and 229 and 237 | Pre-challenge antibody titer, IgE, GEOMEAN ([1]; geometric mean of group): 100; Pre-challenge antibody titer, IgE ([1]; individual dogs): 100; fecal eggs (fecundity), in words ([2]; relative to the control group): significant reduction in fecal eggs; worm burden, in words ([2]; versus AS03 control): no remarkable reduction in worm burden |
